Experimental data: the supplement of paper PMC10567573
± gives the standard deviation.

Experiment: protein stability index of a GFP-peptide fusion (GPS, HEK-293T) (PSI 1-6); higher = more stable
[1] = treatment: DMSO, c terminus: a fixed tail appended
[2] = treatment: MLN4924 1 uM, 8 h, c terminus: a fixed tail appended
[3] = treatment: DMSO, c terminus: native
[4] = treatment: MLN4924 1 uM, 8 h, c terminus: native
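Also: 24-mer peptide tiles fused after GFP, lentivirally expressed, FACS-sorted into six equal bins by GFP/DsRed ratio, decoded by Illumina sequencing, PSI is the read-weighted mean bin number.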

Sequence | protein stability index [1] | protein stability index [2] | protein stability index [3] | protein stability index [4]
EKMKKRKMSNSFHGIRPPQLEQPE [RHOBTB3] | 4.65 ± 0.12 | 4.77 ± 0.14 |  | 
ELAELEDALRNLKCGSGARGGDGE [TRADD] | 4.7 ± 0.39 | 4.66 ± 0.07 |  | 
ELEGLIADPDEMRMQALLIRERIL [FEM1C] | 2.54 ± 0.48 | 2.65 ± 0.43 |  | 
ELERLIDKAMKKDGLVGMAIVGGM [FIS1] | 2 ± 0.29 | 2.46 ± 0.37 |  | 
ELKTFRLKTRSWAGERSRRELCSR [CDC25B] | 3.07 ± 0.099 | 3.44 ± 0.56 |  | 
ELSSLGSDSEANGFAERRIDKFGF [TBC1D10A] | 3.82 ± 0.2 | 3.83 ± 0.15 |  | 
ELVLEQQLDREAQARHQLVLTAVD [PCDHGC5] | 3.99 ± 0.15 | 4.103 ± 0.038 |  | 
EMEEGVKESLCAKEEKCQGKGDDS [KCNA4] | 5.62 ± 0.19 | 5.57 ± 0.33 |  | 
EMPTQPGKPLIPPMNRRNILVMKH [NETO1] | 3.21 ± 0.045 | 3.27 ± 0.24 |  | 
EMYQVSRLQHICELFIITQLQSMP [RHOBTB3] | 2.21 ± 0.23 | 2.16 ± 0.44 |  | 
ENGYGFHLNAIRGLPGSFIKEVQK [PDZK1] | 2.62 ± 0.18 | 2.97 ± 0.43 |  | 
ENRLSVFFSVIFMTVGILSNSLAI [PTGFR] | 3.14 ± 0.25 | 3.36 ± 0.17 |  | 
ENRTLQVLRAEHRGFQEENKALWE [CBY2] | 4.37 ± 0.37 | 4.38 ± 0.17 |  | 
ENTIAGANHTHTFYGHSHHSHHGH [C10orf62] | 3.58 ± 0.25 | 3.78 ± 0.23 |  | 
EPHKCPECGKRFLRSSDLYRHQRL [ZNF449] | 3.96 ± 0.36 | 4.39 ± 0.47 |  | 
EPIPFWTFLSRILTGLNYEAPKYH [NSDHL] | 2.62 ± 0.23 | 2.76 ± 0.42 |  | 
EQEIQFEDFTNTLRELGHAEHEIT [PKD2L1] | 5.16 ± 0.2 | 5.17 ± 0.32 |  | 
EQQRIIAILLDAHHKTYDPTYSDF [VDR] | 2.48 ± 0.37 | 2.27 ± 0.15 |  | 
ERAKREMVMYSITVAFWLLNSWLW [MFF] | 2.48 ± 0.48 | 1.87 ± 0.39 |  | 
ERLAEAEKSQLIMQAEAEAASVRM [FLOT1] | 4.84 ± 0.39 | 4.66 ± 0.3 |  | 
ERLTKQEKRPLFLAPDFDRWLDES [HACD3] | 3.87 ± 0.21 | 3.93 ± 0.38 |  | 
ERPYGCDECEKAYFYMSCLVKHKR [ZNF649] | 2.48 ± 0.16 | 2.81 ± 0.28 |  | 
ERTEESSAVQYFQFYGYLSQQQNM [CARM1] | 2.56 ± 0.25 | 2.82 ± 0.52 |  | 

Sequence | protein stability index [1] | protein stability index [2] | protein stability index [3] | protein stability index [4]
ESDDAFDTVTIPVPSEEPQESDQT [IQUB] | 5.69 ± 0.24 | 5.72 ± 0.3 |  | 
ESFLAWKKRKRQEKIDKLEQDMER [ZC3H15] | 3.8 ± 0.2 | 4.22 ± 0.33 |  | 
ESIAHIGDVMFTGTADGRVVKLEN [APMAP] | 4.11 ± 0.17 | 4.38 ± 0.19 |  | 
ESLSAIEAELEKVAHQLQALRRG [CHGA] |  |  | 3.19 ± 0.42 | 3 ± 0.72
ESTELMTHLEAQNRIKGCHDHLTL [PDLIM4] | 3.83 ± 0.13 | 3.88 ± 0.15 |  | 
ESTRELGELLGEARYYLVQGLIED [KCTD13] | 2.88 ± 0.19 | 2.91 ± 0.31 |  | 
ESWDEEDKRNYPSLELDKMAHGYG [CHGB] | 4.87 ± 0.1 | 4.87 ± 0.14 |  | 
ESYPEDTVFYIPEDHKPGTFPKAL [DLC1] | 4.13 ± 0.31 | 4.22 ± 0.21 |  | 
ETCDLGKIKPEARRYLEKSIKMGK [NLN] | 4.09 ± 0.18 | 4.45 ± 0.23 |  | 
ETETLVTREAVTEILGIEPDREKG [TSN] | 5.5 ± 0.19 | 5.39 ± 0.33 |  | 
ETLLKVDLENRCQSLTEDLEFRKS [LMNB1] | 4.42 ± 0.22 | 4.43 ± 0.2 |  | 
ETVDLVLKLKNKLLQADREHLPVK [DENND6A] | 2.86 ± 0.41 | 2.72 ± 0.38 |  | 
EVDAAPPVDLNKILEDMRCQYEAL [KRT36] | 4.59 ± 0.13 | 4.68 ± 0.096 |  | 
EVDSGRQIEYEYKLAQALHEMREQ [LMNB1] | 4.51 ± 0.23 | 4.43 ± 0.23 |  | 
EVKIEEPVSMEMDNHMSDKDESCY [INTS3] | 5.31 ± 0.37 | 5.37 ± 0.19 |  | 
EVLSKALSQRTITVGVYEAAKLLN [GADD45A] | 2.77 ± 0.45 | 2.56 ± 0.53 |  | 
EVQDLLEGCELPDLPSSLLLPEDM [SMG5] | 4.5 ± 0.13 | 4.67 ± 0.2 |  | 
EVQGDQQAWFGFAGTPGYLSPEVL [CAMK2B] | 3.07 ± 0.35 | 3.14 ± 0.21 |  | 
EVRSKAEEVVSFVKKNVLVTGGFF [FUNDC2] | 2.17 ± 0.37 | 2.25 ± 0.34 |  | 
EVSQHIKMRMGGRVDFEEFVELIG [CABP4] | 2.44 ± 0.12 | 3 ± 0.44 |  | 
EYSPEEESEPPAPNIRNMAPNSLS [TRAF3IP2] | 5.04 ± 0.36 | 5.07 ± 0.27 |  | 
FADEKNILHIMVKVVKGHRPELPP [RIPK4] | 2.3 ± 0.32 | 2.36 ± 0.36 |  | 
FDECGITDDQLLALLPSLSHCSQL [PRAME] | 3.31 ± 0.15 | 3.56 ± 0.19 |  | 

Sequence | protein stability index [1] | protein stability index [2] | protein stability index [3] | protein stability index [4]
FDTNAEGCILQWKKIYCRICMAQI [ZBED1] | 2.39 ± 0.65 | 2.04 ± 0.079 |  | 
FEKSRYETYIHLLAMKIKVGSDDL [PSD2] | 2.53 ± 1 | 2.55 ± 0.61 |  | 
FEQLPDDVAISANIADIEEKRGFT [NCF4] | 5.03 ± 0.33 | 5.05 ± 0.21 |  | 
FEWTDSPNTAVSVHVSESSDDDEE [ACBD3] | 5.53 ± 0.22 | 5.56 ± 0.21 |  | 
FFCEGVKIIFRVGLVLLKHALGSP [TBC1D10A] | 1.98 ± 0.54 | 2.11 ± 0.36 |  | 
FGHHHQRAWIPSENIQDITVNIHR [ZMYND11] | 2.78 ± 0.37 | 2.69 ± 0.35 |  | 
FHGTRQYKFDPKTKRILTLQKANS [MMP1] | 2.38 ± 0.5 | 2.6 ± 0.54 |  | 
FIMLLIGIVLPVFYLVYFKIQASG [LYSMD4] | 2.31 ± 0.22 | 2.01 ± 0.54 |  | 
FIPSSHNDRDFLTRIFTEDRFAQD [PPEF2] | 2.58 ± 0.81 | 3.05 ± 0.64 |  | 
FKCNYCGKSFRQRPSLVIHLRIHT [ZNF449] | 3.15 ± 0.46 | 3.35 ± 0.24 |  | 
FKSLFGSIGDIESCKLVRDKITGQ [ELAVL3] | 2.87 ± 0.38 | 2.56 ± 0.15 |  | 
FMRTDPVCQKLLLDAMNYHLMPFR [KLHL14] | 2.25 ± 0.19 | 2.28 ± 0.3 |  | 
FPTDAPYPTTLGKDRECQSQSLAL [ZNF8] | 4.07 ± 0.15 | 4.05 ± 0.31 |  | 
FQIAANLSMERYALVFGVNTFIAL [SLC19A2] | 3.2 ± 0.18 | 3.09 ± 0.17 |  | 
FRCLFEAEITQIQSHISDMSVILS [KRT71] | 1.94 ± 0.14 | 2.34 ± 0.37 |  | 
FSLKTFKRKSEVERAVKRMRHLST [MATN2] | 2.54 ± 0.51 | 2.82 ± 0.46 |  | 
FSVKFEVQAPRWGNPRALSFVLSS [OAS1] | 2.94 ± 0.27 | 3.01 ± 0.49 |  | 
FTRSQTLIQNGGEIDCVDKDGNTP [ANKRD44] | 4.74 ± 0.16 | 4.81 ± 0.21 |  | 
FWHDTLTEQLWRIFAGVHDEKAKP [TLE6] | 2.23 ± 0.41 | 2.41 ± 0.76 |  | 
GAAFRDHQLLEPIRDFEARKCPVH [TRIM29] | 3.73 ± 0.26 | 3.88 ± 0.17 |  | 
GADKEILTTKGEMPVQLTSRREIR [ANKRD40] | 4.83 ± 0.13 | 4.95 ± 0.19 |  | 
GAEPGTYLTGTINGDPESVASLHW [ADAMTS4] | 4.52 ± 0.87 | 3.67 ± 0.62 |  | 
GAEPSAPGGGGSPGACPALGTKSC [RTN3] | 5.36 ± 0.26 | 5.4 ± 0.26 |  | 

Sequence | protein stability index [1] | protein stability index [2] | protein stability index [3] | protein stability index [4]
GAGPPEPLRICPLHISVKEELDG [TRIM35] |  |  | 4.21 ± 0.32 | 4.56 ± 0.14
GAIAVFVYASDKEWIRFDQSNVLC [PTGFR] | 3.02 ± 0.34 | 2.87 ± 0.47 |  | 
GARQISYSIPEELEKGSFVGNISK [PCDHGA10] | 4.13 ± 0.19 | 4.23 ± 0.17 |  | 
GAYDFPSPEWDTVTPEAKDLINKM [CAMK2D] | 4.536 ± 0.038 | 4.07 ± 0.093 |  | 
GDEFSLREHELLCRADHGLLLERA [ISL2] | 4.06 ± 0.49 | 3.65 ± 0.35 |  | 
GDTKRATPIEVLCENFPEMATYLR [CSNK1G3] | 3.04 ± 0.33 | 2.97 ± 0.38 |  | 
GERPRSEEDNELNLPNLAAAYSSI [GCH1] | 4.71 ± 0.3 | 4.75 ± 0.075 |  | 
GEVPVLIHGENIICEATQIIDYLE [GDAP1] | 3.55 ± 0.29 | 3.6 ± 0.3 |  | 
GFSLEDPQTHSNRIYRMIKLGLGI [HSP90AB1] | 2.06 ± 0.42 | 2.29 ± 0.3 |  | 
GFWRIDPQYAERLLSGAFKKRRLP [FOXJ1] | 2.56 ± 0.12 | 2.4 ± 0.37 |  | 
GGCGGPRAWSQCGGGGLRAWSQRS [CPOX] | 2.73 ± 0.74 | 2.56 ± 0.46 |  | 
GGEGVEVELLHNTSYTRQACLVSC [SCNN1D] | 2.9 ± 0.2 | 2.55 ± 0.31 |  | 
GGGGAPRGRYGPPSRRSENRVVVS [SRSF1] | 4.36 ± 0.16 | 4.29 ± 0.12 |  | 
GGIRGRAMALTSSMNWGINLLISL [SLC2A12] | 2.26 ± 0.7 | 2.54 ± 0.42 |  | 
GGKRRRDDISVDSLDFTKKILHTA [PPP2R2C] | 3.17 ± 0.21 | 3.77 ± 0.36 |  | 
GGPFPLPYTAPGGYLDVGSKPMY [TBX6] |  |  | 3.12 ± 0.43 | 3.43 ± 0.2
GGPQALVNIMRTYTYEKLLWTTSR [CTNNB1] | 2.43 ± 0.6 | 2.5 ± 0.27 |  | 
GGQESSGLNLGKKISVPRDVMLEE [MYOZ1] | 5.07 ± 0.27 | 5.1 ± 0.23 |  | 
GGTSSNNSEEEEDDDDEEEEVSEV [ANKRD17] | 5.5 ± 0.23 | 5.54 ± 0.16 |  | 
GHEEWVGSAYLFVESSLDKVVLSD [TRADD] | 2.41 ± 0.45 | 2.45 ± 0.55 |  | 
